Data published in paper PMC4070431.

How the values were obtained:
[1] = molecular target: non-selective somatostatin receptor (sst)
[2] = molecular target: human natriuretic peptide receptor-A (NPR-A) (human) (UniProt P16066); assay: radioligand binding
[3] = molecular target: human natriuretic peptide receptor-C (NPR-C) (human) (UniProt P17342); assay: radioligand binding
[4] = molecular target: human natriuretic peptide receptor-A (NPR-A) (human) (UniProt P16066)
[5] = molecular target: human natriuretic peptide receptor-B (NPR-B) (human) (UniProt P20594)
Sequence of human natriuretic peptide receptor-B (NPR-B) (human) (P20594 23-1047): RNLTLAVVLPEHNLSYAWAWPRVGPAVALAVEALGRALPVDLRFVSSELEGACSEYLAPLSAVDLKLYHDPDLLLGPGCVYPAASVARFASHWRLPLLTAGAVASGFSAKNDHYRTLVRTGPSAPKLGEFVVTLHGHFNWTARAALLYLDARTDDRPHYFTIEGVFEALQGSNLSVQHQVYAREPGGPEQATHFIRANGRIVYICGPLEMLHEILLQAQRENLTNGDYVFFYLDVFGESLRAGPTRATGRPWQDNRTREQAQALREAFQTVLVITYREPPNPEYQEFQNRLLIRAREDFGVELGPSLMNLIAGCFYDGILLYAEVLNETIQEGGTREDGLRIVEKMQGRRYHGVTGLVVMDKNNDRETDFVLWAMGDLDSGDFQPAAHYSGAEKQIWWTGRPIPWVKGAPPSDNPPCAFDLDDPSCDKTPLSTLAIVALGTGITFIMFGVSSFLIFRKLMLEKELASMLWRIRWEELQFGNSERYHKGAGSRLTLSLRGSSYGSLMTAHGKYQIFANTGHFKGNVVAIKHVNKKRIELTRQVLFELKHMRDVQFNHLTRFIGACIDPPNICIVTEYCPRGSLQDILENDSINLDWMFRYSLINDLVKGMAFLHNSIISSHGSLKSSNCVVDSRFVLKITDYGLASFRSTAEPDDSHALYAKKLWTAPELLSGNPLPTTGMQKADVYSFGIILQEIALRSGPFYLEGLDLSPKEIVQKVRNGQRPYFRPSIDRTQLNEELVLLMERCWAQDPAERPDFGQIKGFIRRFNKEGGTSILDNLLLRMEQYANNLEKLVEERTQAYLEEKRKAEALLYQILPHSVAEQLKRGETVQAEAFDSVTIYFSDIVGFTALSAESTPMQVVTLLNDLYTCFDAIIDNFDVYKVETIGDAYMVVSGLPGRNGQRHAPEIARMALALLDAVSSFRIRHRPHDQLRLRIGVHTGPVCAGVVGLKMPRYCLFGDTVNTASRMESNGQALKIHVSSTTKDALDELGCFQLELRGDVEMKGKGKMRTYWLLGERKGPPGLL

Sequence of human natriuretic peptide receptor-A (NPR-A) (human) (P16066 33-1061): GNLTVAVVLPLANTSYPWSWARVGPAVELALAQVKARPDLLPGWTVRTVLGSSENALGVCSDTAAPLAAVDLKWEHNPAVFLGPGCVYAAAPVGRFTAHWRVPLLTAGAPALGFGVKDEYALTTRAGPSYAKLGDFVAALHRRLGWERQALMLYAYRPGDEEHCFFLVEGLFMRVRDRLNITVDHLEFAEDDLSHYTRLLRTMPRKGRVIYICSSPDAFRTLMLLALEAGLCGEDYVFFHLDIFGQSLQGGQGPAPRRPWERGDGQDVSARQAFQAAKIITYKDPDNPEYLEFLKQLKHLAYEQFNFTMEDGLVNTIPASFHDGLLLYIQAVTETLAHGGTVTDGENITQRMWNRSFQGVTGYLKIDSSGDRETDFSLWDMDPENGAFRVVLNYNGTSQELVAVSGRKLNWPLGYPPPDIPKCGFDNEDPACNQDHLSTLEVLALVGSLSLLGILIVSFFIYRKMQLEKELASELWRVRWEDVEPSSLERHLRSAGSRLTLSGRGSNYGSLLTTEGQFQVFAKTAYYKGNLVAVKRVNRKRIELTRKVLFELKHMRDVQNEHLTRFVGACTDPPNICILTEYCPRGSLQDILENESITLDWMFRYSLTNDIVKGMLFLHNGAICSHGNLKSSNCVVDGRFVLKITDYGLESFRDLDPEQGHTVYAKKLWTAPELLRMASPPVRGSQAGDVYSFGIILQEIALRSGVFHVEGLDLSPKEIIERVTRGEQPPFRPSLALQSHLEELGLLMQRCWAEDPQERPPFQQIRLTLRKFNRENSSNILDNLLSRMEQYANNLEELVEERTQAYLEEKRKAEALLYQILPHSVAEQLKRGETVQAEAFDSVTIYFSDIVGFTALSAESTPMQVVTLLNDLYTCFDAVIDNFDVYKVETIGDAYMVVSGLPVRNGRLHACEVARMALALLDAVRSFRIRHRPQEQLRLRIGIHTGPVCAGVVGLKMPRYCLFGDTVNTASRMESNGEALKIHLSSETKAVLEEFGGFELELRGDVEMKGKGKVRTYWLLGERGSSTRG
Sequence of human natriuretic peptide receptor-C (NPR-C) (human) (P17342 27-541): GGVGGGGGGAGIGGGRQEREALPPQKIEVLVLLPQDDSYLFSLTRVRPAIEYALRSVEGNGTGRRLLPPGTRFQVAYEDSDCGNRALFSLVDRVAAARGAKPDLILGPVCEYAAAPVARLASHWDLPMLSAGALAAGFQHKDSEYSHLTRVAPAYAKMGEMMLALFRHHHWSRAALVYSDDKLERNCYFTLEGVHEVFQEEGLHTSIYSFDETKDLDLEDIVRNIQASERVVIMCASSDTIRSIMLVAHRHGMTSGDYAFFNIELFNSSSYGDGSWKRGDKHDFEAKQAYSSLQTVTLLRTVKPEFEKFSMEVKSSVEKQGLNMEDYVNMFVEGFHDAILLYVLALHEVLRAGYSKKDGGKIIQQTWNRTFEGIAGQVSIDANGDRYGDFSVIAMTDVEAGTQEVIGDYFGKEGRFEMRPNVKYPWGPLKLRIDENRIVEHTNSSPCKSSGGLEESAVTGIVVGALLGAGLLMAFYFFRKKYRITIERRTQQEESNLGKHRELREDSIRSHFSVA

Ki [1] [nM]	Ki [2] [nM]	Ki [3] [nM]	cGMP generation in HEK293 cells expressing the receptor, EC50 [4] [nM]	cGMP generation in HEK293 cells expressing the receptor, Emax [4] [% hANP]	cGMP generation in HEK293 cells expressing the receptor (up to 10 µM), Emax [5] [% hCNP]	Substance
4200						PL-3994 (Hept-cyclo(Cys-His-Phe-D-Ala-Gly-Arg-D-Nle-Asp-Arg-Ile-Ser-Cys)-Tyr-[Arg mimetic]-NH2) (peptide)
	3	0.7	2	96	9	human brain natriuretic peptide (hBNP) (ligand)
